What all share (settings): both partners purified
One experiment has as its target T1, CCM2^FL (human, UniProt Q9BSQ5 1-438).
T1 construct: CCM2, human, residues 1–438; also called full-length CCM2; CCM2^FL: 1–438; source: purified; not shown: His tag, N-terminal, cleaved
The experiment can be described thus: pull-down; GST fusions of MEKK3 immobilised on glutathione Sepharose-4B beads; 5 μl bead slurry and 60 μg purified CCM2 in 500 μl, 4 °C, 2 h; 150 mM NaCl, 50 mM Tris pH 7.5, 0.1% Triton-X100; Coomassie-stained SDS–PAGE of washed beads.

Experiment [1] addresses T2, MEKK3^NPB1 (human, UniProt Q99759 1-124).
T2 construct: MEKK3 (MAP3K3), human, residues 1–124 (N-terminal helix and PB1 domain); also called N terminus of MEKK3; 6 × His–MEKK3^NPB1 (before cleavage); not shown: His6, N-terminal, cleaved
T2 sequence: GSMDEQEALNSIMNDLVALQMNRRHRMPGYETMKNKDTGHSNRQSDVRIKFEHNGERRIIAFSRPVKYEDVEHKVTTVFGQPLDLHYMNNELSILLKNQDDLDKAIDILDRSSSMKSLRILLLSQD
The experiment in a line: SEC-MALS; CCM2^HHD:MEKK3^NPB1 complex used for crystallization, 100 μl of 1.5 mg ml^-1 in 150 mM NaCl, 20 mM Tris pH 8.0, 0.02% sodium azide. For orientation: In gel filtration, larger molecules generally elute earlier.

Experiment [2] concerns the target T2, MEKK3^NPB1. The experiment in a line: ITC; CCM2^HHD injected into MEKK3^NPB1 in 20 2.5-μl injections at 25 °C; 150 mM NaCl, 50 mM HEPES pH 7.5; nano-ITC; 'observed Kd'. On the technique in general: In ITC the heat of successive injections is recorded.

T1 sequence (Q9BSQ5 other isoform, or with tags, fused parts or gaps): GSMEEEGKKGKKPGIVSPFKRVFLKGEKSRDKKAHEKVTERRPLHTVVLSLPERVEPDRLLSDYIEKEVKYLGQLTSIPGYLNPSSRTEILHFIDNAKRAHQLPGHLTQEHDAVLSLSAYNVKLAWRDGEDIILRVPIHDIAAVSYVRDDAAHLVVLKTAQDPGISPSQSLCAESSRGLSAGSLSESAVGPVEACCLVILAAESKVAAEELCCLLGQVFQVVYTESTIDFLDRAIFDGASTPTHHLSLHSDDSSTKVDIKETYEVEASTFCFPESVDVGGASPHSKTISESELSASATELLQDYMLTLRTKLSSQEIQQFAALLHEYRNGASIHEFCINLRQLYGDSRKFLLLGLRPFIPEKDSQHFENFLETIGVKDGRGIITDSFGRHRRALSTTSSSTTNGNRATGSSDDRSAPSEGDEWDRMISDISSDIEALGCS

B1: GST–MEKK3^NPB1 (domain or fragment, human, UniProt Q99759 1-124, looked up)
chain: MDEQEALNSIMNDLVALQMNRRHRMPGYETMKNKDTGHSNRQSDVRIKFEHNGERRIIAFSRPVKYEDVEHKVTTVFGQPLDLHYMNNELSILLKNQDDLDKAIDILDRSSSMKSLRILLLSQD
notes: MEKK3 (MAP3K3), human, residues 1–124 (N-terminal helix and PB1 domain); GST-pCDF vector; also called GST–MEKK3^NPB1: 1–124
For the molecule B1, in the experiment with CCM2^FL, the binding result was “binds”.

B2: CCM2^HHD (domain or fragment, human)
chain: GSSKTISESELSASATELLQDYMLTLRTKLSSQEIQQFAALLHEYRNGASIHEFCINLRQLYGDSRKFLLLGLRPFIPEKDSQHFENFLETIGVKDGRG
notes: CCM2, human, residues 283–379 (harmonin homology domain); also called CCM2 harmonin homology domain; CCM2^HHD: 283–379; source: E. coli Rosetta (DE3), purified (HisTrap, TEV cleavage, size exclusion); not shown: His6, N-terminal, cleaved
Take B2: in the experiment with MEKK3^NPB1 [1], the stoichiometry N (usually the number of molecules, sites or subunits per partner or assembly) turned out to be 1. In addition, in the experiment with MEKK3^NPB1 [2], the Kd – broadly, the free concentration of one partner at which half of the binding sites on the other are occupied at equilibrium, for simple one-to-one binding – was found to be 1.4 ± 0.4 µM.
